Our source for the IC50 values is patent US20220162261A1 (published 2022).

Bridge positions count the residues as written; N and C are the ends. Square brackets hold non-standard residues; d marks the D form. Ends that are not written are not given here. * marks the point of attachment. Phe(4-CF3) = N[C@@H](Cc1ccc(C(F)(F)F)cc1)C(=O)O; Phe(4-tBu) = CC(C)(C)c1ccc(C[C@H](N)C(=O)O)cc1; Phe(2,4-Cl2) = N[C@@H](Cc1ccc(Cl)cc1Cl)C(=O)O; Phe(4-CN) = N#Cc1ccc(C[C@H](N)C(=O)O)cc1; Oleoyl = CCCCCCCC/C=C\CCCCCCCC(=O)*; NMeR = CN[C@@H](CCCNC(=N)N)C(=O)O; Palmitoyl = CCCCCCCCCCCCCCCC(=O)*; hPhe = N[C@@H](CCc1ccccc1)C(=O)O; Myristoyl = CCCCCCCCCCCCCC(=O)*; Tic = O=C(O)[C@@H]1Cc2ccccc2CN1; β3hE = N[C@@H](CCC(=O)O)CC(=O)O; Pen = CC(C)(S)[C@H](N)C(=O)O; Isovaleryl = CC(C)CC(=O)*; Hexanoyl = CCCCCC(=O)*

A word on the IC50: it is the concentration needed to halve the response being measured. The low end stands for greater potency, the high end for weaker potency.

For assay [1], the target named is T1, human α4β7 integrin on cells (human, UniProt P13612 34-1032; P26010 20-798).
T1 construct: whole, on cells; also called α4β7 cell (Hu); RPMI8866 cells
Briefly: RPMI8866 cell adhesion to MAdCAM-1.

Assay [2] concerns the target T2, rh integrin α4β7 (R&D Systems #5397-A30) (human, UniProt P13612 34-970; P26010 20-723).
T2 construct: bought; coated on a nickel coated plate; also called immobilized α4β7; immobilized α4β7 integrin protein
Briefly: competition ELISA vs MAdCAM-1.

The molecule Ac-[Pen][NMeR]SDTL[Pen][Phe(4-tBu)][β3hE][dK](Hexanoyl) (disulfide 1-7) [SEQ ID NO: 170] displayed an IC50 in assay [1] greater than 10 nM.

For the molecule Ac-[Pen][NMeR]SDTL[Pen][Phe(4-tBu)][β3hE][dK](4,4,4‑trifluorobutyryl) (disulfide 1-7) [SEQ ID NO: 169], in assay [1], the concentration for half-maximal inhibition (IC50) was greater than 10 nM.

B1: SEQ ID NO: 131 (peptide)
peptide: Ac-[Pen][NMeR]SDTL[Pen][Phe(4-tBu)]E[dK]-NH2
modifications: disulfide 1-7; not fully specified (residue 10); printed as (Ac Pen N-Me-R S D T L Pen F(4tBu) E k NH2)2 DIG, disulfide Pen-Pen; also: homodimer, two subunits joined by DIG linker
In assay [2], B1 displayed an IC50 of no more than 10 nM. Take Hexanoyl-[Pen][NMeR]SDTL[Pen][Phe(4-tBu)][β3hE][dK]-NH2 (disulfide 1-7) [SEQ ID NO: 176]: in assay [1], the IC50 is greater than 50 nM.

B2: SEQ ID NO: 20 (peptide)
peptide: C[NMeR]SDTL[Pen]W-NH2
modifications: disulfide 1-7; not fully specified (N-terminus); printed as PEG13 NH2 C N-Me-R S D T L Pen W NH2, disulfide C-Pen; also: N-terminal PEG13 linker, number of subunits not shown
notes: N-terminal linker printed without dimer brackets
For B2, the IC50 in assay [1] was greater than 50 nM.

For Myristoyl-[Pen][NMeR]SDTL[Pen][Phe(4-tBu)][β3hE][dK]-NH2 (disulfide 1-7) [SEQ ID NO: 181], the IC50 in assay [1] is greater than 1000 nM. The same measure, in the same setting: under Oleoyl-[Pen][NMeR]SDTL[Pen][Phe(4-tBu)][β3hE][dK]-NH2 (disulfide 1-7) [SEQ ID NO: 180] stands greater than 1000 nM; under Ac-[Pen][NMeR]SQIQ[Pen][Phe(4-tBu)][β3hE][dK]-NH2 (disulfide 1-7; also: homodimer via DIG linker on D-Lys10 side chains) [SEQ ID NO: 189], greater than 10000 nM.

B3: SEQ ID NO: 139 (peptide)
peptide: Ac-[Pen][NMeR]SDTL[Pen][Phe(4-CN)][β3hE][dK]-NH2
modifications: disulfide 1-7; not fully specified (residue 10); printed as (Ac Pen N-Me-R S D T L Pen F(4-CN) b-H-E k NH2)2 DIG, disulfide Pen-Pen; also: homodimer, two subunits joined by DIG linker
Take B3: the IC50 in assay [1] is no more than 10 nM. In assay [1], Ac-[Pen][NMeR]SDTL[Pen][Phe(4-tBu)][β3hE][dK](Myristoyl) (disulfide 1-7) [SEQ ID NO: 175] returned an IC50 greater than 500 nM. Ac-[Pen][NMeR]SDTL[Pen][Phe(4-tBu)][β3hE][dK](Oleoyl) (disulfide 1-7) [SEQ ID NO: 174] registered a half-inhibitory concentration (IC50) in assay [1] greater than 1000 nM.

Consider Palmitoyl-[Pen][NMeR]SDTL[Pen][Phe(4-tBu)][β3hE][dK]-NH2 (disulfide 1-7) [SEQ ID NO: 178], for which the IC50 in assay [1] was greater than 1000 nM.

B4: SEQ ID NO: 89 (peptide)
peptide: Ac-[Pen][NMeR]SDTLC[Tic][dE][dK]-NH2
modifications: disulfide 1-7
SMILES: CC(=O)N[C@@H]1C(=O)N(C)[C@@H](CCCNC(=N)N)C(=O)N[C@@H](CO)C(=O)N[C@@H](CC(=O)O)C(=O)N[C@@H]([C@@H](C)O)C(=O)N[C@@H](CC(C)C)C(=O)N[C@H](C(=O)N2Cc3ccccc3C[C@H]2C(=O)N[C@H](CCC(=O)O)C(=O)N[C@H](CCCCN)C(N)=O)CSSC1(C)C
Consider B4, for which the IC50 in assay [2] is greater than 25 nM.

B5: SEQ ID NO: 21 (peptide)
peptide: C[NMeR]SDTL[Pen]W-NH2
modifications: disulfide 1-7; not fully specified (N-terminus); printed as PEG25 NH2 C N-Me-R S D T L Pen W NH2, disulfide C-Pen; also: N-terminal PEG25 linker, number of subunits not shown
notes: as for B2
On to B5, for which the IC50 in assay [1] was greater than 50 nM.

B6: SEQ ID NO: 16 (peptide)
peptide: Ac-[Pen][NMeR]SDTL[Pen][Phe(2,4-Cl2)]E[dK]-NH2
modifications: disulfide 1-7
SMILES: CC(=O)N[C@@H]1C(=O)N(C)[C@@H](CCCNC(=N)N)C(=O)N[C@@H](CO)C(=O)N[C@@H](CC(=O)O)C(=O)N[C@@H]([C@@H](C)O)C(=O)N[C@@H](CC(C)C)C(=O)N[C@H](C(=O)N[C@@H](Cc2ccc(Cl)cc2Cl)C(=O)N[C@@H](CCC(=O)O)C(=O)N[C@H](CCCCN)C(N)=O)C(C)(C)SSC1(C)C
For B6, the IC50 in assay [2] is greater than 10 nM.

B7: SEQ ID NO: 192 (peptide)
peptide: Ac-[Pen][NMeR]SQIQ[Pen][Phe(4-tBu)][β3hE][dK]-NH2
modifications: disulfide 1-7; also: homodimer via IDA linker on D-Lys10 side chains, Alexa-647 label
Molecule B7 showed an IC50 in assay [1] greater than 10000 nM. Ac-[Pen][NMeR]SDTL[Pen][Phe(4-tBu)][β3hE][dK](Isovaleryl) (disulfide 1-7) [SEQ ID NO: 171] registered an IC50 in assay [1] greater than 10 nM.

Ac-[Pen][NMeR]SDTL[Pen][Phe(4-tBu)][β3hE][dK](Palmitoyl) (disulfide 1-7) [SEQ ID NO: 172]: the concentration for half-maximal inhibition (IC50) in assay [1] stood at 965 nM.

B8: SEQ ID NO: 45 (peptide)
peptide: Ac-[Pen][NMeR]SDTL[Pen][hPhe]E[dK]-NH2
modifications: disulfide 1-7; not fully specified (residue 10); printed as (Ac Pen N-Me-R S D T L Pen HPhe E k NH2)2 DIG, disulfide Pen-Pen; also: dimer, two subunits joined by DIG linker
For B8, in assay [1], the IC50 is greater than 25 nM.

B9: SEQ ID NO: 37 (peptide)
peptide: Ac-C[NMeR]SDTL[Pen]W[dK]-NH2
modifications: disulfide 1-7; not fully specified (residue 9); printed as (Ac C N-Me-R S D T L Pen W k NH2)2 PEG25, disulfide C-Pen; also: dimer, two subunits joined by PEG25 linker
B9 gave an IC50 in assay [1] greater than 100 nM. Still for that read-out and setting: under Isovaleryl-[Pen][NMeR]SDTL[Pen][Phe(4-tBu)][β3hE][dK]-NH2 (disulfide 1-7) [SEQ ID NO: 177] stands greater than 50 nM.

B10: SEQ ID NO: 14 (peptide)
peptide: Ac-[Pen][NMeR]SDTL[Pen][hPhe][dE][dK]-NH2
modifications: disulfide 1-7
SMILES: CC(=O)N[C@@H]1C(=O)N(C)[C@@H](CCCNC(=N)N)C(=O)N[C@@H](CO)C(=O)N[C@@H](CC(=O)O)C(=O)N[C@@H]([C@@H](C)O)C(=O)N[C@@H](CC(C)C)C(=O)N[C@H](C(=O)N[C@@H](CCc2ccccc2)C(=O)N[C@H](CCC(=O)O)C(=O)N[C@H](CCCCN)C(N)=O)C(C)(C)SSC1(C)C
For the molecule B10, the IC50 in assay [2] was greater than 25 nM.

B11: SEQ ID NO: 46 (peptide)
peptide: Ac-[Pen][NMeR]SDDL[Pen]WE[dK]-NH2
modifications: disulfide 1-7
SMILES: CC(=O)N[C@@H]1C(=O)N(C)[C@@H](CCCNC(=N)N)C(=O)N[C@@H](CO)C(=O)N[C@@H](CC(=O)O)C(=O)N[C@@H](CC(=O)O)C(=O)N[C@@H](CC(C)C)C(=O)N[C@H](C(=O)N[C@@H](Cc2c[nH]c3ccccc23)C(=O)N[C@@H](CCC(=O)O)C(=O)N[C@H](CCCCN)C(N)=O)C(C)(C)SSC1(C)C
In the case of B11, in assay [2], the IC50 is greater than 1000 nM.

B12: SEQ ID NO: 48 (peptide)
peptide: Ac-[Pen][NMeR][dD]DTL[Pen]WE[dK]-NH2
modifications: disulfide 1-7
SMILES: CC(=O)N[C@@H]1C(=O)N(C)[C@@H](CCCNC(=N)N)C(=O)N[C@H](CC(=O)O)C(=O)N[C@@H](CC(=O)O)C(=O)N[C@@H]([C@@H](C)O)C(=O)N[C@@H](CC(C)C)C(=O)N[C@H](C(=O)N[C@@H](Cc2c[nH]c3ccccc23)C(=O)N[C@@H](CCC(=O)O)C(=O)N[C@H](CCCCN)C(N)=O)C(C)(C)SSC1(C)C
B12 displayed a 50% inhibitory concentration (IC50) in assay [2] greater than 1000 nM. Ac-[Pen][NMeR]SQIQ[Pen][Phe(4-tBu)][β3hE][dK]-NH2 (disulfide 1-7; also: homodimer via IDA linker on D-Lys10 side chains) [SEQ ID NO: 190]: the IC50 in assay [1] is greater than 100000 nM.

B13: SEQ ID NO: 3 (peptide)
peptide: Ac-[Pen][NMeR]SDTL[Pen][Phe(4-CF3)][dE][dK]-NH2
modifications: disulfide 1-7; not fully specified (residue 10); printed as (Ac Pen N-Me-R S D T L Pen F(4-CF3) e k NH2)2 DIG, disulfide Pen-Pen; also: dimer, two subunits joined by DIG linker
As to B13, the 50% inhibitory concentration (IC50) in assay [1] is greater than 25 nM.

B14: SEQ ID NO: 36 (peptide)
peptide: Ac-C[NMeR]SDTL[Pen]W[dK]-NH2
modifications: disulfide 1-7; not fully specified (residue 9); printed as (Ac C N-Me-R S D T L Pen W k NH2)2 PEG13, disulfide C-Pen; also: dimer, two subunits joined by PEG13 linker
For the molecule B14, the IC50 in assay [1] was greater than 50 nM.
